Like-named read-outs stand apart in the source and are kept apart here. Values belong to the binder of their own block, whether it stands above or below them.
Key:
human IL-17A [1] = target: T1, human IL-17A (human, UniProt Q16552 24-155, biotinylated with Sulfo-NHS-LC-Biotin in the AlphaScreen assays only); assay: cell-based or functional assay
[2] = target: T2, human IL-17A/F heterodimer (human, UniProt Q16552 24-155; Q96PD4 31-163, limits assumed, biotinylated with Sulfo-NHS-LC-Biotin in the AlphaScreen assays only); assay: cell-based or functional assay
human IL-17A [3] = target: T1, human IL-17A; assay: AlphaScreen competition, hIL-17A - IL-17RA-Fc;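 also: receptor Fc-fusion plus Acceptor and streptavidin Donor beads incubated with the mixture for 1 h at room temperature before reading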
Protocol: (§1) To this mixture, the IL-17RA or IL-17RC Fc-fusions, Acceptor beads and the streptavidin Donor beads were added and further incubated for 1 hour at RT.

human IL-17A [4] = target: T1, human IL-17A; assay: AlphaScreen competition, hIL-17A - IL-17RC-Fc;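 also: Read-out after 1 h at room temperature with the receptor Fc-fusion, Acceptor beads and streptavidin-coated Donor beads present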
Protocol: as §1

[5] = target: T2, human IL-17A/F heterodimer; assay: AlphaScreen competition, hIL-17A/F - IL-17RA-Fc
Target sequence in this assay (Q16552 24-155 limits assumed, chain 1 of 2, one chain of several): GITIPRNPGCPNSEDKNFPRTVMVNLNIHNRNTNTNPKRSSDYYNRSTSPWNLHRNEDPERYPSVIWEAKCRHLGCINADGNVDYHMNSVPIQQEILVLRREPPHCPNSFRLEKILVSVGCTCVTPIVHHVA
Protocol: as §1

[6] = target: T2, human IL-17A/F heterodimer; assay: AlphaScreen competition, hIL-17A/F - IL-17RC-Fc
Target sequence in this assay (Q16552 24-155 limits assumed, chain 1 of 2, one chain of several): as above
Protocol: as §1

human IL-17A [7] = target: T1, human IL-17A; assay: SPR Biacore, hIL-17A on chip; periplasmic extract (*)
Protocol: (§2) Off-rates of the periplasmic extracts containing anti-IL-17 Nanobodies were measured by Surface Plasmon Resonance (SPR) using a Biacore T100 instrument. […] Periplasmic extracts containing IL-17 neutralizing Nanobodies were injected for 2 minutes at a flow rate of 45 μl/min to allow binding to chip-bound antigen. Next, binding buffer without periplasmic extracts was sent over the chip at the same flow rate to allow spontaneous dissociation of bound Nanobody. From the sensorgrams obtained for the different periplasmic extracts koff-values (k₄) were calculated.

[8] = target: T2, human IL-17A/F heterodimer; assay: SPR Biacore, hIL-17A/F on chip; periplasmic extract (*)
Target sequence in this assay (Q16552 24-155 limits assumed, one chain of several): as the sequence (Q16552 24-155 limits assumed, chain 1 of 2, one chain of several) above
Protocol: as §2

human IL-17F [9] = target: T3, human IL-17F (human, UniProt Q96PD4 31-163, biotinylated with Sulfo-NHS-LC-Biotin in the AlphaScreen assays only); assay: SPR Biacore, hIL-17F on chip; periplasmic extract (*); NB = no binding
T3 construct: also called hIL-17F; recombinant human IL-17F
T3 sequence: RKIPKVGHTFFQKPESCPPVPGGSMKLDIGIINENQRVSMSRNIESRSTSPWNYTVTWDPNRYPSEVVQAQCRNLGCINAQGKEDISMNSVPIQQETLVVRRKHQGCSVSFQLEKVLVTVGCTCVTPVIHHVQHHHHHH
Protocol: as §2

human IL-17F [10] = target: T3, human IL-17F; assay: AlphaScreen competition, hIL-17F - IL-17RC-Fc
Protocol: as §1

human IL-17A [11] = target: T4, human IL-17A (human, UniProt Q16552 24-155); assay: SPR (Biacore) off-rate
T4 construct: secreted form made in Hek293 cells (GenBank U32659); also called hIL-17A; hIL17A
T4 sequence (Q16552 other isoform, or with tags, fused parts or gaps): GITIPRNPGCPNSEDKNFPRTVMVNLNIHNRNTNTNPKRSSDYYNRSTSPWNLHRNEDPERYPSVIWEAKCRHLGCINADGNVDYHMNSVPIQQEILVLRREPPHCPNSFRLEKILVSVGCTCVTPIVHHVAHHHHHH

[12] = target: T5, human IL-17A/F heterodimer (human, UniProt Q16552 24-155; Q96PD4 31-163, limits assumed); assay: SPR (Biacore) off-rate
T5 construct: bought, made in E. coli (R&D Systems 5194-IL/CF); also called hIL-17A/F; hIL17A/F
Target sequence in this assay (Q16552 24-155 limits assumed, one chain of several): as the sequence (Q16552 24-155 limits assumed, chain 1 of 2, one chain of several) above

Cynomolgus monkey IL-17A = target: T6, Cynomolgus monkey IL-17A (Cynomolgus monkey, UniProt A0A2K5TTB0 24-155); assay: SPR (Biacore) off-rate
T6 construct: also called cyno IL-17A; cIL-17A
T6 sequence (A0A2K5TTB0 entry or part of it): as the sequence (Q16552 24-155 limits assumed, chain 1 of 2, one chain of several) above, with T3A, P8S, N34S, I77V, N78K, P104R counted along it

human IL-17A [13] = target: T4, human IL-17A; assay: cell-based or functional assay
[14] = target: T5, human IL-17A/F heterodimer; assay: cell-based or functional assay
Target sequence in this assay (Q16552 24-155 limits assumed, one chain of several): as the sequence (Q16552 24-155 limits assumed, chain 1 of 2, one chain of several) above

human IL-17A [15] = target: T4, human IL-17A; assay: AlphaScreen IL-17A-IL-17RA (average)
human IL-17A [16] = target: T4, human IL-17A; assay: SPR (Biacore) off-rate; remark: listed apart in the source
human IL-17F [17] = target: T7, human IL-17F (human, UniProt Q96PD4 31-163); assay: SPR (Biacore) off-rate
T7 construct: made in Hek293 cells (GenBank AF384857); also called hIL-17F; hIL17F
T7 sequence: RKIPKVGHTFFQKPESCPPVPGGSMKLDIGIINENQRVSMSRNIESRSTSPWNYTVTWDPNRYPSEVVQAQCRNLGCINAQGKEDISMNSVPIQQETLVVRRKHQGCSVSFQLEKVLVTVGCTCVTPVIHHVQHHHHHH

[18] = target: T5, human IL-17A/F heterodimer; assay: SPR (Biacore) off-rate; remark: listed apart in the source
Target sequence in this assay (Q16552 24-155 limits assumed, chain 1 of 2, one chain of several): as the sequence (Q16552 24-155 limits assumed, chain 1 of 2, one chain of several) above

human IL-17A [19] = target: T4, human IL-17A; assay: AlphaScreen hIL-17A-IL-17RA; vs IL17MS13B03
human IL-17F [20] = target: T7, human IL-17F; assay: AlphaScreen hIL-17F-IL-17RC; vs IL17MS13B03
human IL-17F [21] = target: T8, human IL-17F (human, UniProt Q96PD4 31-163); assay: method not given
T8 construct: also called hIL-17F; rhIL-17F
T8 sequence: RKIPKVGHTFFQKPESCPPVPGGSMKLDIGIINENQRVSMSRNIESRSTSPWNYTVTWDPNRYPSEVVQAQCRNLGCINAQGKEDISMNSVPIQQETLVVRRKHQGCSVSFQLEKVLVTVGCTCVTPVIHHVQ

human IL-17F [22] = target: T7, human IL-17F; assay: SPR (Biacore) off-rate; remark: listed apart in the source
[23] = target: T5, human IL-17A/F heterodimer; assay: SPR (Biacore) off-rate; remark: listed apart in the source
Target sequence in this assay (Q16552 24-155 limits assumed, chain 1 of 2, one chain of several): as the sequence (Q16552 24-155 limits assumed, chain 1 of 2, one chain of several) above

human IL-17F [24] = target: T7, human IL-17F; assay: AlphaScreen IL-17F-IL-17RC; vs IL17MS16A04
human IL-17A [25] = target: T9, human IL-17A (human, UniProt Q16552 24-155); assay: cell-based or functional assay; remark: listed apart in the source
T9 sequence (Q16552 other isoform, or with tags, fused parts or gaps): as the sequence (Q16552 other isoform, or with tags, fused parts or gaps) above

human IL-17F [26] = target: T10, human IL-17F (human, UniProt Q96PD4 31-163); assay: cell-based or functional assay
T10 sequence: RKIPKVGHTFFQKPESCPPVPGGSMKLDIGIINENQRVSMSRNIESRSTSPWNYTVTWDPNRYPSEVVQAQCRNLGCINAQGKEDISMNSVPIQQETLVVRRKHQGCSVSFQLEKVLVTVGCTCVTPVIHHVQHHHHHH

human IL-17A [27] = target: T9, human IL-17A; assay: competition ELISA IL17A-RA
Protocol: (§3) To this end, IL-17RA, respectively IL-17RC was coated at a concentration of 1 μg/ml in PBS.

human IL-17F [28] = target: T10, human IL-17F; assay: competition ELISA IL17F-RC
Protocol: as §3

T1 sequence (Q16552 other isoform, or with tags, fused parts or gaps): as the sequence (Q16552 other isoform, or with tags, fused parts or gaps) above

B1: 01D06 (VHH)
VHH: EVQLVESGGGLVQAGGSLRLSCAADGRTFSTYGMTWFRQVPGKEREFVAHIPRSTYSPYYANSVKGRFTIARDDAKSTVYLQMNSLKPEDTAVYYCAVFTGGTYYVPTAYDYWGQGTQVTVSS
notes: Class 2 Nanobody (anti-IL-17A and IL-17A/F); not shown: c-myc, His6 tag
IL-17A-induced IL-6 production in HT-1080 cells, Emax (human IL-17A [1]): 98.3% | IL-17A-induced IL-6 production in HT-1080 cells, IC50 (human IL-17A [1]): 42.8 nM | IL-17A/F-induced IL-6 production in HT-1080 cells, Emax [2]: 79.5% | IL-17A/F-induced IL-6 production in HT-1080 cells, IC50 [2]: 51.1 nM | IC50 (human IL-17A [3]): 0.618 nM | IC50 (human IL-17A [4]): 1.52 nM | IC50 [5]: 0.401 nM | IC50 [6]: 0.198 nM | koff (human IL-17A [7]): 0.00097 s⁻¹ | koff [8]: 0.0013 s⁻¹ | binding result (human IL-17F [9]): no binding

B2: 04A02 (VHH)
VHH: EVQLVESGGGLVQPGGSLRLSCAASRNINIINYMAWYRQAPGNQRELVAAMTSDATTEYADSVKGRFTISRDIPENTVYLQMNSLKPEDTAVYYCNAKGIWDYLGRRDFGDYWGQGTQVTVSS
notes: as for B1
IL-17A-induced IL-6 production in HT-1080 cells, Emax (human IL-17A [1]): 102% | IL-17A-induced IL-6 production in HT-1080 cells, IC50 (human IL-17A [1]): 12.6 nM | IL-17A/F-induced IL-6 production in HT-1080 cells, Emax [2]: 67.6% | IL-17A/F-induced IL-6 production in HT-1080 cells, IC50 [2]: 70.4 nM | IC50 (human IL-17A [3]): 0.399 nM | IC50 (human IL-17A [4]): 0.837 nM | IC50 [5]: 1.96 nM | IC50 [6]: 3.17 nM | koff (human IL-17A [7]): 0.0013 s⁻¹ | koff [8]: 0.011 s⁻¹ | binding result (human IL-17F [9]): no binding

B3: 09D10 (VHH)
VHH: EVQLVESGGGLVQAGGSLSLSCAASGSVFRIDVMRWHRQAPGKQREFLASIASGGTTNYADSVKGRFTISRDNAKNTVYLQMNSLKPEDTAVYYCGANAESGPYTYWGLGTQVTVSS
notes: as for B1
IL-17A-induced IL-6 production in HT-1080 cells, Emax (human IL-17A [1]): 93.5% | IL-17A-induced IL-6 production in HT-1080 cells, IC50 (human IL-17A [1]): 8.5 nM | IL-17A/F-induced IL-6 production in HT-1080 cells, Emax [2]: 55% | IL-17A/F-induced IL-6 production in HT-1080 cells, IC50 [2]: 124 nM | IC50 (human IL-17A [3]): 0.211 nM | IC50 (human IL-17A [4]): 1.12 nM | IC50 (human IL-17F [10]): 69.4 nM | IC50 [5]: 9.02 nM | IC50 [6]: 8.65 nM | koff (human IL-17A [7]): 0.00015 s⁻¹ | koff [8]: 0.0017 s⁻¹

B6: 13B03 Fc fusion (Fc fusion)
chain: EVQLVESGGGSVQAGDSLRLSCAASGRANSINWFGWFRQTPGKEREFVAGIRWSDAYTEYANSVKGRFTISRDNAKNTVDLQMDSLKPEDTAVYYCVLDLSTVRYWGQGTQVTVSS
notes: also called 13B03 tested as Fc fusion; not shown: hinge and Fc
fold lower affinity on IL-17F than on IL-17A (human IL-17F [21]): ~10 fold

B7: IL17MS3040 (VHH)
VHH: EVQLVESGGGLVQAGGSLRLSCAASGRTFSSYVVGWFRQAPGKEREFIGAISGSGGSIYYAVSEKDRFTISRDNGKNTLYLQMSSLKAEDTAVYYCTADQEFGYLRFGRSEYWGQGTQVTVSS
koff (human IL-17F [22]): 0.00148 s⁻¹ | koff [23]: 0.00878 s⁻¹ | IC50 fold difference vs WT (human IL-17F [24]): 9.6 fold

B8: IL17MS3041 (VHH)
VHH: EVQLVESGGGLVQAGGSLRLSCAASGRTFSSYVVGWFRQAPGKEREFIGAISGSGESIYYAVSEKDRFTISRDNGKNTLYLQMSSLKAEDTAVYYCTADQEFGYLRFGRSEYWGQGTQVTVSS
koff (human IL-17F [22]): 0.000606 s⁻¹ | koff [23]: 0.00427 s⁻¹ | IC50 fold difference vs WT (human IL-17F [24]): 2.2 fold

B11: 13E02 Fc fusion (Fc fusion)
chain: EVQLVESGGGLVQAGGSLRLSCAASGRTYDAMGWLRQAPGKEREFVAAISGSGDDTYYADSVKGRFTISKDNAGITMYLQMNSLKPEDTAVYYCATRRGLYYVWDSNDYENWGQGTQVTVSS
notes: also called 13E02 tested as Fc fusion; not shown: hinge and Fc
fold lower affinity on IL-17F than on IL-17A (human IL-17F [21]): ~10 fold

More lines, now with the values ahead:

koff (human IL-17A [11]): 0.000146 s⁻¹ | koff [12]: 0.000195 s⁻¹ | koff (Cynomolgus monkey IL-17A): 0.000181 s⁻¹ | IC50 cell based assay hIL-17A (IL-6, HT-1080 cells) (human IL-17A [13]): 0.94 nM | IC50 cell based assay hIL-17A/F (IL-6, HT-1080 cells) [14]: 8.15 nM | IC50 (human IL-17A [15]): 0.027 nM
B4: IL17MS3061 (VHH)
VHH: DVQLVESGGGLVQPGGSLRLSCAASGTIVNIHVMGWYRQAPGKQRELVALIFSGGSADYADSVKGRFTISRDNSKNTVYLQMNSLRPEDTAVYYCAAEIGYYSGGTYYSSEAHWGQGTLVTVSS
notes: variant of IL17MS04G01; Kabat numbering

koff (human IL-17A [16]): 0.000258 s⁻¹ | koff (human IL-17F [17]): 0.00982 s⁻¹ | koff [18]: 0.00052 s⁻¹ | IC50 fold difference compared to WT (human IL-17A [19]): 1.3 fold | IC50 fold difference compared to WT (human IL-17F [20]): 1.2 fold
B5: IL17MS3053 (VHH)
VHH: EVQLVESGGGSVQAGDSLRLSCAASGRANTINWFGWFRQTPGKEREFVAGIRWSDAYTEYANSVKGRFTISRDNAKNTVDLQMDSLKPEDTAVYYCVLDLSTVRYWGQGTQVTVSS
notes: variant of IL17MS13B03; Kabat numbering

koff (human IL-17F [22]): 0.00121 s⁻¹ | koff [23]: 0.005 s⁻¹ | IC50 fold difference vs WT (human IL-17F [24]): 8.6 fold
B9: IL17MS3042 (VHH)
VHH: EVQLVESGGGLVQAGGSLRLSCAASGRTFSSYVVGWFRQAPGKEREFIGAISGSGDTIYYAVSEKDRFTISRDNGKNTLYLQMSSLKAEDTAVYYCTADQEFGYLRFGRSEYWGQGTQVTVSS

IC50, hIL-17A induced IL-6, HT-1080, without HSA (human IL-17A [25]): 0.31 nM | IC50, hIL-17F induced IL-6, HT-1080, without HSA (human IL-17F [26]): 4.9 nM | IC50 (human IL-17A [27]): 0.112 nM | IC50 (human IL-17F [28]): 0.267 nM
B10: SH-Fc-(GS)2-13E02 (Fc fusion, not shown: a dimerising Fc or GST; small tags and cut ends)
chain: EVQLVESGGGLVQAGGSLRLSCAASGRTYDAMGWLRQAPGKEREFVAAISGSGDDTYYADSVKGRFTISKDNAGITMYLQMNSLKPEDTAVYYCATRRGLYYVWDSNDYENWGQGTQVTVSS
notes: also called MSB0010619; SH-(GS)2-Fc-13E02

Reference: US20210130452A1 (Merck KGaA, published 2021)
